Laboratory results: PMC7954794, “Protein context shapes the specificity of SH3 domain-mediated interactions in vivo” (Nature Communications, 2021)

System: PPIs identified as affected by the SH3 domain deletions
Experiment: Liquid DHFR-PCA low-throughput validation of PPIs affected by SH3 deletion (Fig. S1D-E)
Type: cell-based, Saccharomyces cerevisiae
Details: label = prey, liquid DHFR-PCA, prey _1 = lost, _2 = gained in screen
Procedure, shortened: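 Growth at 30 °C was tracked by OD each 15 min over 72 h in agar-free PCA selection medium, starting at 0.1 OD. Cells were diploids selected after mating, first cultured 48 h with NAT and HPH in synthetic complete MSG medium, pH 6.0.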

B1: YJL151C_2 (protein, UniProt P14359 1-133, looked up)
Protein SNA3: MDRDHINDHDHRMSYSINKDDLLLMVLAVFIPPVAVWKRKGMFNRDTLLNLLLFLLLFFPAIIHACYVVYETSSERSYDLSRRHATAPAVDRDLEAHPAEESQAQPPAYDEDDEAGADVPLMDNKQQLSSGRT
Ratio (Deletedscore / WTscore) (bait ABP1): 1.204
Ratio (Deletedscore / WTscore) (bait BZZ1-2): 1.485

B2: YCR002C_1 (protein, UniProt P25342 1-322, looked up)
Cell division control protein …: MDPLSSVQPASYVGFDTITNQIEHRLLKKGFQFNIMVVGQSGLGKSTLINTLFASHLIDSATGDDISALPVTKTTEMKISTHTLVEDRVRLNINVIDTPGFGDFIDNSKAWEPIVKYIKEQHSQYLRKELTAQRERFITDTRVHAILYFLQPNGKELSRLDVEALKRLTEIANVIPVIGKSDTLTLDERTEFRELIQNEFEKYNFKIYPYDSEELTDEELELNRSVRSIIPFAVVGSENEIEINGETFRGRKTRWSAINVEDINQCDFVYLREFLIRTHLQDLIETTSYIHYEGFRARQLIALKENANSRSSAHMSSNAIQR
Ratio (Deletedscore / WTscore) (bait BEM1-2): 0.5157
Ratio (Deletedscore / WTscore) (bait BOI1): 0.9522
Ratio (Deletedscore / WTscore) (bait NBP2): 0.7856
Ratio (Deletedscore / WTscore) (bait RVS167): 0.8283

B3: YER114C_1 (protein, UniProt P39969 1-1040, looked up)
BEM1-interacting protein 2: MSNDREVPTLSQLNTTVSRDKDVSDTLSPDFDSKGSATGRDGGNFPMYIAINEYFKRMEDELDMKPGDKIKVITDDEEYKDGWYFGRNLRTNEEGLYPVVFTQKITVEKAPTLMRAKSTKRIYSPLTNEDPLLSSTFISENDSNSELPTPQPIETAASISRTANGKIERNLSLKNTMSDIDNALLEFKDDSIGPPDRFINSGRDEEHSITHETILSATDGLDVVESNSKPTTSSSTGFLNGDLENQATLINGIDTTKLNPVEAEFWSPEEITAYFIMEGYDVQSASRFQKHKISGKILLELELVHLKELDINSFGTRFEIFKEIEKIKEAIRTNGRSLNRASKTNNANIYNQLMPPANVDQRASYRGHVRKTSQSLEDLPSQQNFIPTPRNTRNSSASKHRPKSLVFDSQEANANIAPDVQIPQVVEEMAGNENLFVSPRRAPKPPSYPSPAQPPKSPLLNNTRTSPSPAQLYSWQSPTLSFSGPKRTSYIDQYSSSDSNFNSRSALPKNNQGGGKALSPIPSPTRNSVRNEDSEGKLTSSSKRNSVPYYGYAPESSSDRKSSCSSHEEEQFQETMNTFERPTSSIYADGSTIASISNDKLAHEKEGKKKPTRHSSSLSSKSKSDSRRNSSLKRSSSASRTSSFKKSSFMLSPFRQQFTDNAARSSSPEENPITSMPSEKNSSPIVDKKSSKKSRSKRRSVSAKEAEIFTETVKDDKNKRSASEAIKGETLKGKSLRQMTARPVAKKKQTSAFIEGLRSISVKEAMKDADFSGWMSKKGSGAMSTWKTRFFTLHGTRLSYFSSTTDTRERGLIDITAHRVVPAKEDDKLVSLYAASTGKGRYCFKLLPPQPGSKKGLTFTQPRTHYFAVDNKEEMRGWMAALIKTTIDIDTSVPIISSYTTPTVSLSKAQEMLAEAREETKLREQQMLENEEDEDQFLWDQQQLQQQQHDNNQGQADRTISASTQRTSDEDNTISTPNLSSANNTTIGSNGFSSPFLLASGLLSPGVARNSSMRGTEKKGKFSTEEDYFGDNSKHKTDKI
Ratio (Deletedscore / WTscore) (bait BEM1-2): 0.3794

B4: YKL051W_1 (protein, UniProt P35735 1-353, looked up)
Protein SFK1: MIQFKSPGNWLFIVPWIAFIPWYGMLIAMLICWASQGHPIYWFMHSEQFPVYISDIGATNLRPLFISCAGWQGLGYVITVALEFFQRSGYLPFQLKKKDPSISDSTSYAEKLHSGKYLMPPYYTKDERNLIFAAFVLGSIGELALLFSSIFSTALYHRVHIAMVSVFVVFMFLSTCCLIAEYFLMGRHYASVHPLASPHFNPQSSEKSFNQDYNTVDELPWYKWKGHVWNKFTISATLKVIWLTLAVVWAICFGAINDRSKSACFEWLLAFWFGIIFMILSADFYLGGRYRQSRYFNHVESFSGYYKYDKALGLYHSEDVLPSDDNAGVIATETASSNIYNNSSSNESIQVVV
Ratio (Deletedscore / WTscore) (bait BEM1-1): 1.076
Ratio (Deletedscore / WTscore) (bait BEM1-2): 0.4799
Ratio (Deletedscore / WTscore) (bait MYO3): 0.5607
Ratio (Deletedscore / WTscore) (bait MYO5): 0.761

B5: YDR166C_1 (protein, UniProt P89102 1-971, looked up)
Exocyst complex component SEC5: MDRFQIGDEQLLRFYQLKTINPTHSWAQDSSKLNNEEATSNELGVETSFDILKDFKYGNQISIDKESRAYLNDESLSYIRDPLNGQEMSKELQHLPNDSMRLNYLVNSKQFNVKAFLRDMHKQDSFNDLNNSLDRLDSDIQDQSIHLKQLVGKNFTKYVKIKNKLDQIYKEFDEKTNEKNQCDSPKENQINVESLNKKVDEVIRTTTFKLKPLMDNYQKILNYQATKKFIELNKFYFNLPKSLKRCLTNNDFNEFIIEYSKGLTLRRRFNQSSDASQSLVIKRIWTQIENLLVTYKDLIWNSLINSNFNIDQPQETILSLFSKLLNLENFINNNQRESESGNKNTTSSSNENPILRWMSIKMNGFQNELNELSGHMISKIIHSQRLILQNNTNQDKSQGCVELSYYLKINQLFQIISDTGKDSEGLKSTVEPNKVNTISGTSYLNLNCQPSSQGLTDSPTIIEMWLLILKYINDLWKICDQFIEFWEHIEKFLDGTYQNSIINEKRKENILIGDSNIIESYQKSLILKEEQINEVRLKGEEFITSVSQNLISFFTSSQSSLPSSLKDSTGDITRSNKDSGSPLDYGFIPPNCNGLSCLRYLPKIVEPILKFSTELAQLNITTNGITICRNTLSTIINRCVGAISSTKLRDISNFYQLENWQVYETVTFSSKSQDSSKNLTFEYGVTQFPEIVTSFQEVSIKTTRDLLFAYEKLPIINGISVVSYPSKQLLTGIEIQQIISMEAVLEAILKNAAKDKDNPRNSHTILTLTNLQYFRECAFPNILQYFDDAFEWNLASKNLELFSLLSKMESSIFGNYLSDLKINLRDTLEEKFHEINWPMYTSNSFRVGDYIIEALMILIVVHSECFRIGPQLIHKILIETQIFIARYLFEAFKPYVGNLSNDGSLQIIVDLEFFQKVMGPLLEKDTEATLRACLQNCFQNDTNRLQKCINEINPIVSANLKRTAIQFAAFS
Ratio (Deletedscore / WTscore) (bait BEM1-2): 0.5345
Ratio (Deletedscore / WTscore) (bait BOI2): 0.7084

B6: YMR109W_1 (protein, UniProt Q04439 1-1219, looked up)
Myosin-5: MAILKRGARKKVHQEPAKRSANIKKATFDSSKKKEVGVSDLTLLSKISDEAINENLKKRFLNATIYTYIGHVLISVNPFRDLGIYTDAVMNEYKGKNRLEVPPHVFAIAESMYYNMKSYNENQCVIISGESGAGKTEAAKRIMQYIAAASSTHTESIGKIKDMVLATNPLLESFGCAKTLRNNNSSRHGKYLEIKFNNQFEPCAGNITNYLLEKQRVVSQIKNERNFHIFYQFTKGASDAYRQTFGVQKPEQYVYTAAAGCISAETIDDLQDYQETLKAMRVIGLGQEEQDQIFRMLAAILWIGNVSFIENEEGNAQVRDTSVTDFVAYLLQIDSQLLIKSLVERIMETNHGMKRGSVYHVPLNIVQADAVRDALAKAIYNNLFDWIVSRVNKSLQAFPGAEKSIGILDIYGFEIFEHNSFEQICINYVNEKLQQIFIQLTLKSEQETYEREKIQWTPIKYFDNKVVCDLIEARRPPGIFAAMNDSVATAHADSNAADQAFAQRLNLFTTNPHFDLRSNKFVIKHYAGDVTYDIDGITDKNKDQLQKDLVELIGTTTNTFLATIFPDTVDRESKRRPPTAGDKIIKSANDLVETLSKAQPSYIRTIKPNETKSPNDYDDRQVLHQIKYLGLQENVRIRRAGFAYRQVFEKFVERFYLLSPHCSYAGDYTWQGDTLDAVKYILQDSSIPQQEYQLGVTSVFIKTPETLFALEHMRDRYWHNMAARIQRAWRRFLQRRIDAATKIQRTIRERKEGNKYEKLRDYGTKVLGGRKERRSMSLLGYRAFMGDYLSCNESKSKGAYIKRQVSIKEKVIFSIHGEALHTKFGRSAQRLKKTFLLTPTTLYIVGQTLVQNAMTYTQDYKIDVRNIQAVSLTNLQDDWVAIKLASSGQPDPLINTYFKTELITHLKRLNDKIQIKIGSAIEYQKKPGKLHSVKCQINESAPKYGDIYKSSTISVRRGNPPNSQVHKKPRKKSSISSGYHASSSQATRRPVSIAAAQHVPTAPASRHSKKPAPPPPGMQNKAATRRSVPNPASTLTASQSNARPSPPTAATRATPAATPAAAAMGSGRQANIPPPPPPPPPSSKPKEPMFEAAYDFPGSGSPSELPLKKGDVIYITREEPSGWSLGKLLDGSKEGWVPTAYMKPHSGNNNIPTPPQNRDVPKPVLNSVQHDNTSANVIPAAAQASLGDGLANALAARANKMRLESDDEEANEDEEEDDW
Ratio (Deletedscore / WTscore) (bait BEM1-1): 0.9175
Ratio (Deletedscore / WTscore) (bait BEM1-2): 0.7054
Ratio (Deletedscore / WTscore) (bait BOI2): 0.9032
Ratio (Deletedscore / WTscore) (bait HSE1): 0.9954
Ratio (Deletedscore / WTscore) (bait NBP2): 0.9518
Ratio (Deletedscore / WTscore) (bait PIN3): 0.6702

B7: YHR064C_1 (protein, UniProt P38788 1-538, looked up)
Ribosome-associated complex …: MSSPVIGITFGNTSSSIAYINPKNDVDVIANPDGERAIPSALSYVGEDEYHGGQALQQLIRNPKNTIINFRDFIGLPFDKCDVSKCANGAPAVEVDGKVGFVISRGEGKEEKLTVDEVVSRHLNRLKLAAEDYIGSAVKEAVLTVPTNFSEEQKTALKASAAKIGLQIVQFINEPSAALLAHAEQFPFEKDVNVVVADFGGIRSDAAVIAVRNGIFTILATAHDLSLGGDNLDTELVEYFASEFQKKYQANPRKNARSLAKLKANSSITKKTLSNATSATISIDSLADGFDYHASINRMRYELVANKVFAQFSSFVDSVIAKAELDPLDIDAVLLTGGVSFTPKLTTNLEYTLPESVEILGPQNKNASNNPNELAASGAALQARLISDYDADELAEALQPVIVNTPHLKKPIGLIGAKGEFHPVLLAETSFPVQKKLTLKQAKGDFLIGVYEGDHHIEEKTLEPIPKEENAEEDDESEWSDDEPEVVREKLYTLGTKLMELGIKNANGVEIIFNINKDGALRVTARDLKTGNAVKGEL
Ratio (Deletedscore / WTscore) (bait BEM1-1): 0.9929
Ratio (Deletedscore / WTscore) (bait BUD14): 0.7471
